We go through three molecules from US20050222390A1 (IMMATICS BIOTECHNOLOGIES, published 2005).

The test deals with T1, recombinant HLA-A*0201-molecules (human).
T1 construct: Folded in vitro with the peptides, purified by gel filtration
Nature of the test: in vitro folding of HLA-A*0201 with peptide, gel filtration. (In general: In gel filtration, larger molecules generally elute earlier.)

B1: YVDPVITSI (met proto-oncogen 654-662) (peptide)
peptide: YVDPVITSI
notes: Found in tumors of both patients RCC01 and RCC13; also synthesized (Fmoc) for tetramers and pulsing; also called c-Met-peptide; c-Met-protooncogene-fragment
Consider B1, for which the binding result is reported as “binds”.

B2: ALLNIKVKL (keratin 18 365-373) (peptide)
peptide: ALLNIKVKL
notes: Found in tumors of both patients RCC01 and RCC13; also called keratin 18 peptide
Take B2: the binding result is “binds”.

B3: SVASTITGV (adipose differentiation-related protein 129-137) (peptide)
peptide: SVASTITGV
notes: Also synthesized (Fmoc) for tetramers and pulsing; also called adipophilin-peptide; adipophilin fragment
As to B3, the binding result is on record as “binds”.
